# Source: US20140105889A1 (published 2014)
# Target: T1, human FcγRIIIa(F) (human, UniProt P08637 17-208, limits assumed)
# T1 construct: also called FcgRIIIaF; FcγRIIIa allotype F158
# Experiment: SPR (Biacore), antibody captured, FcγR as analyte
# Description: Interaction between each modified antibody and Fcγ receptor prepared in the manner described above was analyzed using the Biacore T100 (GE Healthcare), Biacore T200 (GE Healthcare), Biacore A100 or Biacore 4000. HBS-EP+ (GE Healthcare) was used for the running buffer, and measurements were carried out at 25° C. The chips used were chips in which antigen peptides, Protein A (Thermo Scientific), Protein A/G (Thermo Scientific) or Protein L (ACTIGEN or BioVision) were immobilized on the Series S Sensor Chip CM5 (GE Healthcare) or Series S Sensor Chip CM4 (GE Healthcare) by amine coupling, or chips in which preliminarily biotinylated antigen peptides were allowed to interact and then immobilized on the Series S Sensor Chip SA (certified) (GE Healthcare). The target antibodies were captured on these sensor chips, Fcγ receptor diluted with the running buffer was allowed to interact, followed by measurement of the amount of bound antibody. The amounts bound were compared between antibodies. However, since the amount of Fcγ receptor bound depends on the amount of captured antibody, the values used for comparison were first corrected by dividing the amount of Fcγ receptor bound by the captured amount of each antibody. Through reaction with 10 mM glycine-HCl at pH 1.5, the sensor chips were regenerated by washing off antibody captured on the sensor chips and used repeatedly.
# Binding strength was evaluated according to the following method based on the results of analyzing the interaction with each FcγR. […] That value was then further multiplied by 100, and the resulting value was used as an indicator of relative binding activity to each FcγR.
# T1 sequence (P08637 other isoform, or with tags, fused parts or gaps limits assumed): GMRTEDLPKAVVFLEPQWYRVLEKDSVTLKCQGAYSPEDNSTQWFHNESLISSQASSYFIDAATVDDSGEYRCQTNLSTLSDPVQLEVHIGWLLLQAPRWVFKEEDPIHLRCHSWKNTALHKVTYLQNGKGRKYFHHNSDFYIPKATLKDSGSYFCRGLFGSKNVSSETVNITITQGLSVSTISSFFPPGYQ
row,relative binding activity (amount bound / amount bound by GpH7-B3/GpL16-k0 x100),Binder
1,62 % of GpH7-B3/GpL16-k0,"GpH7-B3 P271S / GpL16-k0 (antibody, human IgG1, B3 variant: anti-glypican-3 IgG1 (constant region B3 = G1d with K439E) with one substitution, EU numbering; also called B3 variant P271S; copies: 2 + 2) heavy: not shown light: DIVMTQSPLSLPVTPGEPASISCQASESLVHSNRNTYLHWYLQKPGQSPQLLIYKVSNRFSGVPDRFSGSGSGTDFTLKISRVEAEDVGVYYCSQNTHVPPTFGQGTKVEIE"
2,0 % of GpH7-B3/GpL16-k0,"GpH7-B3 S298P / GpL16-k0 (antibody, human IgG1, B3 variant: anti-glypican-3 IgG1 (constant region B3 = G1d with K439E) with one substitution, EU numbering; also called B3 variant S298P; copies: 2 + 2) heavy: not shown light: DIVMTQSPLSLPVTPGEPASISCQASESLVHSNRNTYLHWYLQKPGQSPQLLIYKVSNRFSGVPDRFSGSGSGTDFTLKISRVEAEDVGVYYCSQNTHVPPTFGQGTKVEIE"
3,52 % of GpH7-B3/GpL16-k0,"GpH7-B3 Q295R / GpL16-k0 (antibody, human IgG1, B3 variant: anti-glypican-3 IgG1 (constant region B3 = G1d with K439E) with one substitution, EU numbering; also called B3 variant Q295R; copies: 2 + 2) heavy: not shown light: DIVMTQSPLSLPVTPGEPASISCQASESLVHSNRNTYLHWYLQKPGQSPQLLIYKVSNRFSGVPDRFSGSGSGTDFTLKISRVEAEDVGVYYCSQNTHVPPTFGQGTKVEIE"
4,52 % of GpH7-B3/GpL16-k0,"GpH7-B3 Q295H / GpL16-k0 (antibody, human IgG1, B3 variant: anti-glypican-3 IgG1 (constant region B3 = G1d with K439E) with one substitution, EU numbering; also called B3 variant Q295H; copies: 2 + 2) heavy: not shown light: DIVMTQSPLSLPVTPGEPASISCQASESLVHSNRNTYLHWYLQKPGQSPQLLIYKVSNRFSGVPDRFSGSGSGTDFTLKISRVEAEDVGVYYCSQNTHVPPTFGQGTKVEIE"
5,38 % of GpH7-B3/GpL16-k0,"GpH7-B3 Y296R / GpL16-k0 (antibody, human IgG1, B3 variant: anti-glypican-3 IgG1 (constant region B3 = G1d with K439E) with one substitution, EU numbering; also called B3 variant Y296R; copies: 2 + 2) heavy: not shown light: DIVMTQSPLSLPVTPGEPASISCQASESLVHSNRNTYLHWYLQKPGQSPQLLIYKVSNRFSGVPDRFSGSGSGTDFTLKISRVEAEDVGVYYCSQNTHVPPTFGQGTKVEIE"
6,57 % of GpH7-B3/GpL16-k0,"GpH7-B3 P271W / GpL16-k0 (antibody, human IgG1, B3 variant: anti-glypican-3 IgG1 (constant region B3 = G1d with K439E) with one substitution, EU numbering; also called B3 variant P271W; copies: 2 + 2) heavy: not shown light: DIVMTQSPLSLPVTPGEPASISCQASESLVHSNRNTYLHWYLQKPGQSPQLLIYKVSNRFSGVPDRFSGSGSGTDFTLKISRVEAEDVGVYYCSQNTHVPPTFGQGTKVEIE"
7,21 % of GpH7-B3/GpL16-k0,"GpH7-B3 Y296K / GpL16-k0 (antibody, human IgG1, B3 variant: anti-glypican-3 IgG1 (constant region B3 = G1d with K439E) with one substitution, EU numbering; also called B3 variant Y296K; copies: 2 + 2) heavy: not shown light: DIVMTQSPLSLPVTPGEPASISCQASESLVHSNRNTYLHWYLQKPGQSPQLLIYKVSNRFSGVPDRFSGSGSGTDFTLKISRVEAEDVGVYYCSQNTHVPPTFGQGTKVEIE"
8,64 % of GpH7-B3/GpL16-k0,"GpH7-B3 Q295D / GpL16-k0 (antibody, human IgG1, B3 variant: anti-glypican-3 IgG1 (constant region B3 = G1d with K439E) with one substitution, EU numbering; also called B3 variant Q295D; copies: 2 + 2) heavy: not shown light: DIVMTQSPLSLPVTPGEPASISCQASESLVHSNRNTYLHWYLQKPGQSPQLLIYKVSNRFSGVPDRFSGSGSGTDFTLKISRVEAEDVGVYYCSQNTHVPPTFGQGTKVEIE"
9,21 % of GpH7-B3/GpL16-k0,"GpH7-B3 Y296G / GpL16-k0 (antibody, human IgG1, B3 variant: anti-glypican-3 IgG1 (constant region B3 = G1d with K439E) with one substitution, EU numbering; also called B3 variant Y296G; copies: 2 + 2) heavy: not shown light: DIVMTQSPLSLPVTPGEPASISCQASESLVHSNRNTYLHWYLQKPGQSPQLLIYKVSNRFSGVPDRFSGSGSGTDFTLKISRVEAEDVGVYYCSQNTHVPPTFGQGTKVEIE"
10,11 % of GpH7-B3/GpL16-k0,"GpH7-B3 S298W / GpL16-k0 (antibody, human IgG1, B3 variant: anti-glypican-3 IgG1 (constant region B3 = G1d with K439E) with one substitution, EU numbering; also called B3 variant S298W; copies: 2 + 2) heavy: not shown light: DIVMTQSPLSLPVTPGEPASISCQASESLVHSNRNTYLHWYLQKPGQSPQLLIYKVSNRFSGVPDRFSGSGSGTDFTLKISRVEAEDVGVYYCSQNTHVPPTFGQGTKVEIE"
11,55 % of GpH7-B3/GpL16-k0,"GpH7-B3 Q295G / GpL16-k0 (antibody, human IgG1, B3 variant: anti-glypican-3 IgG1 (constant region B3 = G1d with K439E) with one substitution, EU numbering; also called B3 variant Q295G; copies: 2 + 2) heavy: not shown light: DIVMTQSPLSLPVTPGEPASISCQASESLVHSNRNTYLHWYLQKPGQSPQLLIYKVSNRFSGVPDRFSGSGSGTDFTLKISRVEAEDVGVYYCSQNTHVPPTFGQGTKVEIE"
12,-1 % of GpH7-B3/GpL16-k0,"GpH7-B3 Y300P / GpL16-k0 (antibody, human IgG1, B3 variant: anti-glypican-3 IgG1 (constant region B3 = G1d with K439E) with one substitution, EU numbering; also called B3 variant Y300P; copies: 2 + 2) heavy: not shown light: DIVMTQSPLSLPVTPGEPASISCQASESLVHSNRNTYLHWYLQKPGQSPQLLIYKVSNRFSGVPDRFSGSGSGTDFTLKISRVEAEDVGVYYCSQNTHVPPTFGQGTKVEIE"
